Source: patent EP4796128A1, “ANTI-C-MET ANTIBODY-DRUG CONJUGATE COMPRISING CAMPTOTHECIN DERIVATIVE” (Celltrion, Inc., priority 2023, dated 2025)
Values joined by “and” are separate entries in the source; they are usually repeats but may differ in a detail not shown here. Identical values can stand only once.

How the values were obtained:
Format in all cases: in vivo, BALB/c nude mice
[1] = tested on: Hs746T human gastric cancer xenograft; test: Hs746T human gastric cancer xenograft model; details: for TGI: Day 13; for T/C: Day 13, tumor volume vs P23 isotype mAb group
Method: Hs746T tumor cells (ATCC, Catalog No. HTB-135) were cultured as a monolayer in DMEM medium supplemented with 10% FBS and 1% antibiotic-antimycotic at 37°C in an atmosphere of 5% CO2 in air. Tumor cells (Hs746T) were routinely passaged three times a week by treating with trypsin-EDTA. The cells with exponential growth were harvested and counted for tumor inoculation.
Mice were randomly assigned to groups of six each, and tumor cells were inoculated into the mice according to the experimental conditions shown in Table 9 below. Specifically, Hs746T tumor cells (2 × 10^6 cells/mouse) were subcutaneously inoculated into the right flank of each mouse together with 0.1 mL of PBS containing Matrigel. The teatment was started on day 15 after inoculation, when the average tumor volume reached 197 mm^3, and the date when the treatment started was set as Day 0. This experiment was performed for 27 days.
The experimental endpoints were set when tumor growth stopped or the mice were cured. The size and volume of the tumor were measured twice a week in two and three dimensions using calipers, and these were used to calculate the T/C (tumor volume over control volume) and TGI (tumor growth inhibition) values.
In the T/C values (%) above, T and C represent the average volume of the experimental group and the control group on a specific day, respectively, and the T/C value is an index for the antitumor effect.
The TGI values were calculated using the following equation, where Ti is a mean tumor volume of the treatment group on a specific date, T0 is a mean tumor volume of the treatment group on the first day of treatment, Vi is a mean tumor volume of the vehicle control group on the same day as Ti, and V0 is a mean tumor volume of the vehicle group on the first day of treatment. TGI (%) = [1−(Ti−T0)/(Vi−V0)] × 100 [formula]
All data were analyzed using SPSS 29.0. p < 0.05 was considered statistically significant.

[2] = tested on: LU-01-0439 human lung cancer xenograft; test: LU-01-0439 human lung cancer xenograft (PDX) model; details: 10 mg/kg i.v. QW × 2 weeks
Excerpt: It was aimed to confirm the anticancer effect of the ADC of the present invention from the LU-01-0439 human lung cancer xenograft model of BALB/c nude mice (Zhejiang Vital River Laboratory Animal Technology Co., LTD.).
The lung cancer PDX model of LU-01-0439 was generated by transplanting surgically resected clinical samples into immunodeficient mice and was established as passage 0 (P0). Then, the cells were subcultured through serial transplantation, and the passage after P0 was defined as passage 1 (P1). The tumor recovered from the frozen P2 tumor tissue was designated as FP3, and finally, FP4 tumor tissue was prepared for the experiment.
Mice were randomly assigned to groups of eight each, and tumors were implanted into the mice according to the experimental conditions shown in Table 14 below. Specifically, LU-01-0439 FP4 tumor fragments (20-30 mm^3) were subcutaneously implanted into the right flank of each mouse. Treatment was started on day 24 after tumor transplantation, when the mean tumor volume reached 175 mm^3, and the treatment start date was set as Day 0. This experiment was performed for 35 days.
The tumor size was measured using the same method as in Experimental Example 3-1 above.
(§1) Statistical analysis was performed on the data obtained 35 days after the start of the experiment to determine differences in tumor volume and tumor weight between groups. […] All data were analyzed using SPSS 29.0. p < 0.05 was considered statistically significant.

[3] = tested on: NCI-H441 human lung cancer xenograft; test: NCI-H441 human lung cancer xenograft model; details: 3 mg/kg i.v. QW × 2 weeks
Method: NCI-H441 tumor cells (ATCC, Catalog No. HTB-174) were maintained in vitro in RPMI 1640 medium supplemented with 10% FBS and 1% antibiotic-antimycotic at 37°C and 5% CO2 in air. Tumor cells NCI-H441 were routinely passaged twice a week by treatment with trypsin-EDTA. The cells with exponential growth were harvested and counted for tumor inoculation.
Mice were randomly assigned to groups of 10 each, and tumor cells were inoculated into the mice according to the experimental conditions shown in Table 19 below. Specifically, NCI-H441 tumor cells (5 × 10^6 cells/mouse) were subcutaneously inoculated into the right flank of each mouse together with 0.2 mL of PBS containing Matrigel (1:1). Treatment was started on day 14 after inoculation, when the mean tumor volume reached 180 mm^3, and the treatment start date was set as day 0. This experiment was performed for 35 days.
as §1

[4] = Day 35, tumor volume vs P23 isotype mAb group
[5] = Day 35, tumor weight vs P23 isotype mAb group

B1: P23-PBX-7016: isotype ADC: anti-influenza A antibody (Navivumab, P23) conjugated with mc-GGFG-PBX-7016; DAR 8 (conjugate, chains of the INN, looked up)
VH: QVQLVQSGAEVKKPGASVKVSCKTSGYSFSTYGVSWVRQAPGQGPEWVGWISAYTGITDYAQKFQGRVTLTTDATTATAFLDLRSLRPDDTATYFCARDKVQGRVEVGSGGRHDYWGQGTLVIVSS
VL: EVVLTQSPGTLALPPGERATLSCRASHRVGSTYIAWYQQKSGQAPRRLIYGASNRATDIPDRFSGSGSGTDFTLTIRRLEPEDSAVYYCQQFSVSPWTFGQGTRVEIK
modifications: mc-GGFG-PBX-7016 payload, DAR 8
[1]; 0.3 mg/kg i.v. single dose, Day 0, mean ± SEM
  Tumor Volume: 197 ± 24 mm^3
[1]; 0.3 mg/kg i.v. single dose, Day 3, mean ± SEM
  Tumor Volume: 309 ± 37 mm^3
[1]; 0.3 mg/kg i.v. single dose, Day 6, mean ± SEM
  Tumor Volume: 512 ± 87 mm^3
[1]; 0.3 mg/kg i.v. single dose, Day 10, mean ± SEM
  Tumor Volume: 873 ± 170 mm^3
[1]; 0.3 mg/kg i.v. single dose
  TGI: 26.87%
  T/C: 76.49%
[1]; 0.3 mg/kg i.v. single dose, Day 20, mean ± SEM
  Tumor Volume: 2149 ± 475 mm^3
[1]; 0.3 mg/kg i.v. single dose, Day 27, mean ± SEM
  Tumor Volume: 2,175 ± 874 (n = 3) mm^3
[1]; 1 mg/kg i.v. single dose, Day 0, mean ± SEM
  Tumor Volume: 197 ± 24 mm^3
[1]; 1 mg/kg i.v. single dose, Day 3, mean ± SEM
  Tumor Volume: 298 ± 36 mm^3
[1]; 1 mg/kg i.v. single dose, Day 6, mean ± SEM
  Tumor Volume: 476 ± 80 mm^3
[1]; 1 mg/kg i.v. single dose, Day 10, mean ± SEM
  Tumor Volume: 807 ± 171 mm^3
[1]; 1 mg/kg i.v. single dose
  TGI: 27.98%
  T/C: 75.52%
[1]; 1 mg/kg i.v. single dose, Day 20, mean ± SEM
  Tumor Volume: 2,089 ± 416 mm^3
[1]; 3 mg/kg i.v. single dose, Day 0, mean ± SEM
  Tumor Volume: 197 ± 23 mm^3
[1]; 3 mg/kg i.v. single dose, Day 3, mean ± SEM
  Tumor Volume: 281 ± 55 mm^3
[1]; 3 mg/kg i.v. single dose, Day 6, mean ± SEM
  Tumor Volume: 318 ± 72 mm^3
[1]; 3 mg/kg i.v. single dose, Day 10, mean ± SEM
  Tumor Volume: 308 ± 80 mm^3
[1]; 3 mg/kg i.v. single dose
  TGI: 84.88%
  T/C: 25.71%
[1]; 3 mg/kg i.v. single dose, Day 13, mean ± SEM
  Tumor Volume: 405 mm^3 and 405 ± 125 mm^3
[1]; 3 mg/kg i.v. single dose, Day 17, mean ± SEM
  Tumor Volume: 669 ± 192 mm^3
[1]; 3 mg/kg i.v. single dose, Day 20, mean ± SEM
  Tumor Volume: 826 ± 223 mm^3
[2]; Day 0, mean ± SEM
  Tumor Volume: 175 ± 15 mm^3
[2]; Day 3, mean ± SEM
  Tumor Volume: 209 ± 22 mm^3
[2]; Day 7, mean ± SEM
  Tumor Volume: 238 ± 22 mm^3
[2]; Day 10, mean ± SEM
  Tumor Volume: 247 ± 19 mm^3
[2]; Day 14, mean ± SEM
  Tumor Volume: 217 ± 18 mm^3
[2]; Day 17, mean ± SEM
  Tumor Volume: 217 ± 28 mm^3
[2]; Day 21, mean ± SEM
  Tumor Volume: 205 ± 42 mm^3
[2]; Day 24, mean ± SEM
  Tumor Volume: 263 ± 61 mm^3
[2]; Day 28, mean ± SEM
  Tumor Volume: 393 ± 90 mm^3
[2]; Day 31, mean ± SEM
  Tumor Volume: 536 ± 117 mm^3
[2]; Day 35
  TGI: 64.62%
  Tumor Weight on Day 35: 0.561 ± 0.117 g
[2]; Day 35, mean ± SEM
  Tumor Volume: 630 ± 137 mm^3
[2]; [4]
  T/C: 43.11%
[2]; [5]
  T/C: 42.93%
[3]; Day 0, mean ± SEM
  Tumor Volume: 180 ± 13 mm^3
[3]; Day 4, mean ± SEM
  Tumor Volume: 198 ± 16 mm^3
[3]; Day 7, mean ± SEM
  Tumor Volume: 171 ± 14 mm^3
[3]; Day 11, mean ± SEM
  Tumor Volume: 140 ± 14 mm^3
[3]; Day 14, mean ± SEM
  Tumor Volume: 131 ± 14 mm^3
[3]; Day 18, mean ± SEM
  Tumor Volume: 134 ± 15 mm^3
[3]; Day 21, mean ± SEM
  Tumor Volume: 138 ± 17 mm^3
[3]; Day 25, mean ± SEM
  Tumor Volume: 155 ± 20 mm^3
[3]; Day 28, mean ± SEM
  Tumor Volume: 190 ± 33 mm^3
[3]; Day 32, mean ± SEM
  Tumor Volume: 235 ± 42 mm^3
[3]; Day 35
  TGI: 91.34%
  Tumor Weight on Day 35: 0.318 ± 0.059 g
[3]; Day 35, mean ± SEM
  Tumor Volume: 303 ± 54 mm^3
[3]; [4]
  T/C: 19.00%
[3]; [5]
  T/Cweight: 19.05%
